Source: patent US9738880B2, “Lysosomal protein targeting sequence and therapeutic applications of same” (Children's Hospital Medical Center, priority 2013, dated 2017)
Substitutions are numbered along the chain they refer to. Numbers in names are those of the source.

B1: Mouse WT: mouse wild type GCase (protein, UniProt P17439 20-515, looked up)
Lysosomal acid …: AQPCIPKSFGYSSVVCVCNASYCDSLDPVTLPALGTFSRYESTRRGRRMELSVGAIQANRTGTGLLLTLQPEKKFQKVKGFGGAMTDATALNILALSPPTQKLLLRSYFSTNGIEYNIIRVPMASCDFSIRVYTYADTPNDFQLSNFSLPEEDTKLKIPLIHQALKMSSRPISLFASPWTSPTWLKTNGRVNGKGSLKGQPGDIFHQTWANYFVKFLDAYAKYGLRFWAVTAENEPTAGLFTGYPFQCLGFTPEHQRDFISRDLGPALANSSHDVKLLMLDDQRLLLPRWAEVVLSDPEAAKYVHGIAVHWYMDFLAPAKATLGETHRLFPNTMLFASEACVGSKFWEQSVRLGSWDRGMQYSHSIITNLLYHVTGWTDWNLALNPEGGPNWVRNFVDSPIIVDIPKDAFYKQPMFYHLGHFSKFIPEGSQRVALVASESTDLETVALLRPDGSAVVVVLNRSSEDVPLTISDPDLGFLETVSPGYSIHTYLWRRQ
B2: D399A: human GCase variant with D399A (ASPIIV sequence) (protein, UniProt P04062 40-536, looked up, variant D399A)
Lysosomal acid …: ARPCIPKSFGYSSVVCVCNATYCDSFDPPTFPALGTFSRYESTRSGRRMELSMGPIQANHTGTGLLLTLQPEQKFQKVKGFGGAMTDAAALNILALSPPAQNLLLKSYFSEEGIGYNIIRVPMASCDFSIRTYTYADTPDDFQLHNFSLPEEDTKLKIPLIHRALQLAQRPVSLLASPWTSPTWLKTNGAVNGKGSLKGQPGDIYHQTWARYFVKFLDAYAEHKLQFWAVTAENEPSAGLLSGYPFQCLGFTPEHQRDFIARDLGPTLANSTHHNVRLLMLDDQRLLLPHWAKVVLTDPEAAKYVHGIAVHWYLDFLAPAKATLGETHRLFPNTMLFASEACVGSKFWEQSVRLGSWDRGMQYSHSIITNLLYHVVGWTDWNLALNPEGGPNWVRNFVASPIIVDITKDTFYKQPMFYHLGHFSKFIPEGSQRVGLVASQKNDLDAVALMHPDGSAVVVVLNRSSKDVPLTIKDPAVGFLETISPGYSIHTYLWRRQ
B3: I402A/I403A: human GCase double mutant I402A + I403A (DSPAAV sequence) (protein)
chain: B2 Lysosomal acid … with A399D, I402A, I403A

Experiments:
[1] = target: T1, ldLIMP2 (Homo sapiens, UniProt Q14108); experiment: Fluorescence polarization binding of DSPIIV GCase peptides to ldLIMP-2; conditions: for binding to ldLIMP2 by change in fluorescence polarization (δmP), in words: ldLIMP2 fixed at 50 nM, peptide up to 250 nM, FIG. 7A
T1 construct: Purified luminal domain LIMP-2 (1d-LIMP2) was custom made (Sino Biological Inc., PRC.); purchased Sino Biological Inc
T1 sequence (Q14108 28-433 limits assumed): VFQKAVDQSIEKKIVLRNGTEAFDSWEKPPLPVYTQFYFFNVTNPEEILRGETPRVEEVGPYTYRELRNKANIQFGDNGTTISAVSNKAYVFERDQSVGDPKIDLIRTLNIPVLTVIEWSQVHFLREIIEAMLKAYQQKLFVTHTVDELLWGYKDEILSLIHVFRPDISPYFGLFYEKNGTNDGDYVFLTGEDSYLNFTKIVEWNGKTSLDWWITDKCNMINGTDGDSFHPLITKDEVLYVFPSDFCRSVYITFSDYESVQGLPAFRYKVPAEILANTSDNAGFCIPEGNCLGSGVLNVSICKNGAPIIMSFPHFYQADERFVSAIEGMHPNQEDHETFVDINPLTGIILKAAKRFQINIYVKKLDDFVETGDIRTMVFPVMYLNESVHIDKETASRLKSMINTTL
Description: FIG. 7A-FIG. 7C: Binding and competition of fluorescent labeled or unlabeled DSPIIV (SEQ ID NO 15) GCase peptides to ldLIMP2. The change (δmP) in fluorescence polarization is plotted on the ordinate and the increasing concentrations of the various peptides are on the abscissa. FIG. 7A depicts saturation kinetics under conditions in which the concentration of ldLIMP2 (50 nM) was fixed. […] FIG. 7B depicts a similar study using unlabeled peptides as competitors. […] Each of the unlabeled peptides “competed” with the labeled peptides in the expected ratios. FIG. 7C depicts a competition study in which labeled (WT*) and unlabeled (WT) peptides were used in complementary competition studies.
FIG. 9: Effect pH on binding WT and alanine substituted DSPIIV (SEQ ID NO 15) peptides to ldLIMP2. […] In comparison, incremental decreases were evident in ldLIMP2 binding at pH=6.8, the approximate pH of the ER/cis-Golgi, as follows: the triple mutant (ASPAAV) having the lowest binding (<10% of WT), the DSPAIV (SEQ ID NO 17) (I402A) and DSPIAV (SEQ ID NO 18) (I403A) mutants being intermediate (˜40-50% of WT), and ASPIIV (SEQ ID NO 16) (D399A) having the least change (˜50-60% of WT), relative to WT.
FIG. 12: Stoichiometry between ldLIMP2 and DSPIIV (SEQ ID NO 15). The peptide concentration giving 50% of maximal binding to ldLIMP2 (ordinate) and the concentration of ldLIMP2 (abscissa) have a 1:1 ratio.
Fluorescence Polarization: The DSPIIV (SEQ ID NO 15) and its mutants, and DDQRLLL (SEQ ID NO 14) peptides (FITC labeled or non-labeled) were synthesized (American Peptide Co., Vista, Calif.). Lyophilized peptides were solubilized in acetonitrile and then were diluted at least 10,000-fold into the reactions for fluorescence polarization assessments. The reactions were done at least in duplicate at various peptide and LIMP-2 concentrations (SpectraMax M5, Molecular Device). Fluorescence polarization data were collected and analyzed with SoftMax Pro 5.0 software. Reaction mixtures contained 100 mM phosphate, pH 6.8 and 1 mM DTT.

[2] = test system: Gba1−/− cells; experiment: Proportion of GCase protein in cells and media; assay type: cell-based, mouse; conditions: for Total GCase: cellular + media; for Total GCase / Cellular GCase / Media GCase: mean ± SD, n = 3; for Cellular GCase / Media GCase: total ng
Source text: (§1) FIG. 11A-FIG. 11C: Secretion and retention of GCase with alanine variants in the TDK (FIG. 11A) or DSPIIV (SEQ ID NO 15) (FIG. 11B and FIG. 11C) sequences. FIG. 11A depicts activities in the media of Gba1−/− fibroblasts following transient transfections of each of the specified alanine substituted GCases in the TDK region. […] FIG. 11B depicts in the Left Panel: Activities in the media following transient transfections of various DSPIIV (SEQ ID NO 15) alanine substituted GCases and the % of GCase secreted. The latter was calculated as {ng GCase (in media)/[ng GCase (in media)+ng (GCase in lysates)]}×100 (also see Table 2). […] The transfections alone (Null+lipo) had no effect. […] FIG. 11C deicts in cellular lysate GCase activities from the various alanine substituted GCases in the DSPIIV (SEQ ID NO 15) sequence as indicated. […] The doubly alanine substituted GCase had little intracellular activity, i.e., nearly all the GCase was secreted into the media.

[3] = test system: Gba1 null/null mouse fibroblasts; experiment: Immunofluorescence co-localization of expressed GCase constructs (lysosome vs ER/Golgi); assay type: cell-based; conditions: for Pearson Indices for co-localization to the lysosome, in words: DSPIIV variants, FIG. 10B; for co-localization to / retention in the ER/Golgi, in words: calnexin or calreticulin; for localization of GCase DSPIIV variants to the lysosome (Lamp1 / LIMP-2 co-localization), in words: transient transfection, FIG. 10A
Source text: Immunofluorescence studies (IF): Mouse Gba1 null/null were used for the host cells for all transfection experiments. pCMV-AC-GFP Mammalian cell expression vector was used for expression of various GCases that included the TKD region (amino acids 407, 408 and 409) or the DSPIIV (SEQ ID NO 15) region (amino acids 399-404). Direct-labeled first antibodies were applied for IF detection; including anti-human GCase, -Calreticulin, -calnexin, -LIMP2, and -Lamp1. Lysotracker and ER tracker (Invitrogen) were also used as indicated. Analyses were done with a Zeiss AxioVert 200M with ApoTome. Co-localization analyses to obtain Pearson Indices were conducted using a module in the Axiovision 4.8 software.
Initial studies to localize the targeting peptide were conducted with GCase-GFP fusion constructs that had COOH-terminal deletions of GCase (FIG. 1). The constructs are designated as GCase-XX or XXX where the Xs represent the number of GCase amino acids deleted from the COOH-terminus. These constructs were transfected into and expressed in Gba1 null/null mouse fibroblasts using the CMV promoter (pCMV-AC-GFP or YFP) Immunofluorescence analyses using anti-human GCase IgG (green) and Lysotracker (Red) were used for colocalization of GCase to the lysosome (Red) or GCase (green) and Calreticulin or Calnexin (Red) for colocalization to the ER or Golgi (FIG. 2). […] Since LIMP-2 is the receptor for targeting of GCase to the lysosome, our working hypothesis was that the peptide sequence for binding of GCase to LIMP-2 was located within amino acids 347-422.

[4] = test system: Gba1−/− fibroblasts; experiment: GCase activity in media and cell lysates after transient transfection (secretion and retention); assay type: cell-based, mouse; conditions: cell lysates; FIG. 11C
Source text: as §1
Enzyme Assays: Cell pellets were homogenized in 0.25% Na-taurocholate and 0.25% Triton X-100. GCase activities were determined fluorometrically with 4 mM 4MU-Glc in 0.2M/0.1M citric-phosphate, pH 5.6 (18, 54)

| Molecule | binding to ldLIMP2 by change in fluorescence polarization (δmP), in words [1] | Total GCase [2] [ng] | Cellular GCase [2] [ng] | Media GCase [2] [ng] | also measured |
| --- | --- | --- | --- | --- | --- |
| ASPAAV [triple alanine mutant of the DSPIIV peptide] | background changes |  |  |  | ldLIMP2 binding relative to WT peptide ([1]; pH 6.8, FIG. 9): < 10 % of WT |
| DSPIAV | did not show saturation up to 250 nM |  |  |  |  |
| DSPAIV | did not show saturation up to 250 nM |  |  |  |  |
| ASPIIV | little binding |  |  |  | decrease of binding to ldLIMP-2 ([1]; pH 6.8, FIG. 9): 30-40%; ldLIMP2 binding relative to WT peptide ([1]; pH 6.8, FIG. 9): 50-60 % of WT |
| B1 |  | 64 ± 7 | 64 ± 7 | 0 | % Secreted ([2]; ng GCase in media / (ng in media + ng in lysates) × 100): 0% |
| B2 |  | 50 ± 4 | 32 ± 4 | 18 ± 2 | Pearson Indices for co-localization to the lysosome, in words [3]: little co-localization to the lysosome; co-localization to / retention in the ER/Golgi, in words [3]: significant retention in the ER/Golgi; localization of GCase DSPIIV variants to the lysosome (Lamp1 / LIMP-2 co-localization), in words [3]: Essentially identical results |
| B3 |  | 24 ± 4 | 4 ± 1 | 20 ± 3 | GCase activity in cell lysates relative to WT [4]: < 5 % of WT; Pearson Indices for co-localization to the lysosome, in words [3]: little co-localization to the lysosome; co-localization to / retention in the ER/Golgi, in words [3]: significant retention in the ER/Golgi; localization of GCase DSPIIV variants to the lysosome (Lamp1 / LIMP-2 co-localization), in words [3]: Essentially identical results |
